Patent US20110129412A1

Tests used:
[1] = molecular target: human CD20 (human) (UniProt P11836); assay: cell-based or functional assay
[2] = molecular target: human CD20 (human) (UniProt P11836); assay: FACS titration on SB cells expressing CD20, 3 h at 4 C, nonlinear fit of geometric mean fluorescence

Sequence of human CD20 (human) (P11836 whole entry): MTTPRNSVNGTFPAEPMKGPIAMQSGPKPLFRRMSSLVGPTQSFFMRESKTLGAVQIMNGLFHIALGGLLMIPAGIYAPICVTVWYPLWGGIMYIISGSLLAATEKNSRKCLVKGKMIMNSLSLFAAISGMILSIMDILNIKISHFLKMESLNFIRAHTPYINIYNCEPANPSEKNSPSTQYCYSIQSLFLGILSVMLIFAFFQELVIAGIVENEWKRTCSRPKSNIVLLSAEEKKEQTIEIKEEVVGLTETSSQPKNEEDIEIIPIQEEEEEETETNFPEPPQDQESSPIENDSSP

% Lysis Daudi 0.001 µg/ml ADCC [1]: 33%
% Lysis Daudi 1 µg/ml ADCC [1]: 95%
% Lysis Raji 0.001 µg/ml ADCC [1]: 16%
% Lysis Raji 1 µg/ml ADCC [1]: 62%
% Lysis Ramos 0.001 µg/ml ADCC [1]: 5%
% Lysis Ramos 1 µg/ml ADCC [1]: 78%
EC50 Daudi CDC [1]: 1.56 µg/mL
EC50 Raji CDC [1]: 0.31 µg/mL
EC50 Ramos Apoptosis Alamar Blue [1]: 0.222 µg/mL
EC50 Ramos Apoptosis Annexin V [1]: 2.59 µg/mL
EC50 Ramos Apoptosis Cell Titer Glo [1]: 0.576 µg/mL
EC50 Ramos Apoptosis WST-1 [1]: 0.0326 µg/mL
EC50 Ramos CDC [1]: 0.43 µg/mL
Kd [2]: 8.1 nM
Substance: Rituxan (Rituximab), Genentech (antibody)
